{
  "source": "patent US20010010923A1",
  "about": "“MODIFIED CARBOXYPEPTIDASE” (priority 1997, published 2001)",
  "data": [
    {"test": "Transpeptidation of Bz-G-A-R-A-R-A-OH (arginine at P1) with H-Leu-NH2, Table 1", "format": "biochemical", "conditions": "[N] 375 mM H-Leu-NH2; 2mM substrate; pH 7.5; [E] 0.1 mg/mL", "experimental": "The mutant carboxypeptidase enzvmes used in these studies were produced by site-directed mutagenesis, essentially following the procedures described in published PCT Patent Application No. WO 95/20039. In general, oligonucleotides synthesized to encode the amino acid substitution were used to produce the mutant enzymes.\nTransamidation reactions were carried out generally as described in PCT Application WO 95/20039. In general, the method included dissolving the nucleophile (H-Leu-NH2, unless otherwise indicated) in 50 mM HEPES, 5 mM EDTA and adjusting the pH to 7.5, 5 μl of peptide substrate (8 mM Bz-G-A-R-A-R-A-OH, unless otherwise indicated, in methanol) was added to 190 μl nucleophile solution followed by 5 μl enzyme, […]\nDuring the reaction, 20 μl aliquots were removed from the reaction mixture and added to 50 μl 1% trifluoroacetic acid to quench the reaction. The reactant composition was determined by HPLC using a Waters HPLC equipped with a C-18 Waters Novapac 4μ reverse phase column and various gradients of acetonitrile in 0.1% trifluoroacetic acid. The separation was monitored at 254 nm allowing the direct quantification of the products from the integrated peak areas. The composition of the reaction mixture was determined at least twvice during the reaction, the first when 20-50% (preferably 35%) of the substrate had been consumed in the reaction and the second time when 50-90% (preferably 80%) of the peptide substrate had been consumed.\nThe reaction products were collected and identified by amino acid analysis after acid hydrolysis using a Pharmacia Alpha Plus analyzer. Further identification was obtained by co-chromatography of authentic standard compounds.\nThe fraction of aminolysis (fa) was expressed as the ratio between the formed aminolysis product and the sum of all products formed. Unconsumed substrate was disregarded in the calculations.", "values": [
      {"molecule": "L178D: carboxypeptidase Y S1 mutant, substitution L178D (protein, UniProt P00729 112-532, looked up, variant L178D) Carboxypeptidase Y: KIKDPKILGIDPNVTQYTGYLDVEDEDKHFFFWTFESRNDPAKDPVILWLNGGPGCSSLTGLFFELGPSSIGPDLKPIGNPYSWNSNATVIFLDQPVNVGFSYSGSSGVSNTVAAGKDVYNFLELFFDQFPEYVNKGQDFHIAGESYAGHYIPVFASEILSHKDRNFNLTSVLIGNGDTDPLTQYNYYEPMACGEGGEPSVLPSEECSAMEDSLERCLGLIESCYDSQSVWSCVPATIYCNNAQLAPYQRTGRNVYDIRKDCEGGNLCYPTLQDIDDYLNQDYVKEAVGAEVDHYESCNFDINRNFLFAGDWMKPYHTAVTDLLNQDLPILVYAGDKDFICNWLGNKAWTDVLPWKYDEEFASQKVRNWTASITDEVAGEVKSYKHFTYLRVFNGGHMVPFDVPENALSMVNEWIHGGFSL", "fa (fraction of aminolysis)": 0.81},
      {"molecule": "L245E + W312N: carboxypeptidase Y combination mutant L245E + W312N (protein, UniProt P00729 112-532, looked up, variant L245E W312N) Carboxypeptidase Y: KIKDPKILGIDPNVTQYTGYLDVEDEDKHFFFWTFESRNDPAKDPVILWLNGGPGCSSLTGLFFELGPSSIGPDLKPIGNPYSWNSNATVIFLDQPVNVGFSYSGSSGVSNTVAAGKDVYNFLELFFDQFPEYVNKGQDFHIAGESYAGHYIPVFASEILSHKDRNFNLTSVLIGNGLTDPLTQYNYYEPMACGEGGEPSVLPSEECSAMEDSLERCLGLIESCYDSQSVWSCVPATIYCNNAQEAPYQRTGRNVYDIRKDCEGGNLCYPTLQDIDDYLNQDYVKEAVGAEVDHYESCNFDINRNFLFAGDNMKPYHTAVTDLLNQDLPILVYAGDKDFICNWLGNKAWTDVLPWKYDEEFASQKVRNWTASITDEVAGEVKSYKHFTYLRVFNGGHMVPFDVPENALSMVNEWIHGGFSL", "fa (fraction of aminolysis)": 0.20},
      {"molecule": "L178D + W312D: carboxypeptidase Y combination mutant L178D + W312D (protein, UniProt P00729 112-532, looked up, variant L178D W312D) Carboxypeptidase Y: KIKDPKILGIDPNVTQYTGYLDVEDEDKHFFFWTFESRNDPAKDPVILWLNGGPGCSSLTGLFFELGPSSIGPDLKPIGNPYSWNSNATVIFLDQPVNVGFSYSGSSGVSNTVAAGKDVYNFLELFFDQFPEYVNKGQDFHIAGESYAGHYIPVFASEILSHKDRNFNLTSVLIGNGDTDPLTQYNYYEPMACGEGGEPSVLPSEECSAMEDSLERCLGLIESCYDSQSVWSCVPATIYCNNAQLAPYQRTGRNVYDIRKDCEGGNLCYPTLQDIDDYLNQDYVKEAVGAEVDHYESCNFDINRNFLFAGDDMKPYHTAVTDLLNQDLPILVYAGDKDFICNWLGNKAWTDVLPWKYDEEFASQKVRNWTASITDEVAGEVKSYKHFTYLRVFNGGHMVPFDVPENALSMVNEWIHGGFSL", "fa (fraction of aminolysis)": 0.71},
      {"molecule": "W312L: carboxypeptidase Y S1 mutant, substitution W312L (protein, UniProt P00729 112-532, looked up, variant W312L) Carboxypeptidase Y: KIKDPKILGIDPNVTQYTGYLDVEDEDKHFFFWTFESRNDPAKDPVILWLNGGPGCSSLTGLFFELGPSSIGPDLKPIGNPYSWNSNATVIFLDQPVNVGFSYSGSSGVSNTVAAGKDVYNFLELFFDQFPEYVNKGQDFHIAGESYAGHYIPVFASEILSHKDRNFNLTSVLIGNGLTDPLTQYNYYEPMACGEGGEPSVLPSEECSAMEDSLERCLGLIESCYDSQSVWSCVPATIYCNNAQLAPYQRTGRNVYDIRKDCEGGNLCYPTLQDIDDYLNQDYVKEAVGAEVDHYESCNFDINRNFLFAGDLMKPYHTAVTDLLNQDLPILVYAGDKDFICNWLGNKAWTDVLPWKYDEEFASQKVRNWTASITDEVAGEVKSYKHFTYLRVFNGGHMVPFDVPENALSMVNEWIHGGFSL", "fa (fraction of aminolysis)": 0.07},
      {"molecule": "L178S + W312N: carboxypeptidase Y combination mutant L178S + W312N (protein, UniProt P00729 112-532, looked up, variant L178S W312N) Carboxypeptidase Y: KIKDPKILGIDPNVTQYTGYLDVEDEDKHFFFWTFESRNDPAKDPVILWLNGGPGCSSLTGLFFELGPSSIGPDLKPIGNPYSWNSNATVIFLDQPVNVGFSYSGSSGVSNTVAAGKDVYNFLELFFDQFPEYVNKGQDFHIAGESYAGHYIPVFASEILSHKDRNFNLTSVLIGNGSTDPLTQYNYYEPMACGEGGEPSVLPSEECSAMEDSLERCLGLIESCYDSQSVWSCVPATIYCNNAQLAPYQRTGRNVYDIRKDCEGGNLCYPTLQDIDDYLNQDYVKEAVGAEVDHYESCNFDINRNFLFAGDNMKPYHTAVTDLLNQDLPILVYAGDKDFICNWLGNKAWTDVLPWKYDEEFASQKVRNWTASITDEVAGEVKSYKHFTYLRVFNGGHMVPFDVPENALSMVNEWIHGGFSL", "fa (fraction of aminolysis)": 0.63},
      {"molecule": "W312N: carboxypeptidase Y S1 mutant, substitution W312N (protein, UniProt P00729 112-532, looked up, variant W312N) Carboxypeptidase Y: KIKDPKILGIDPNVTQYTGYLDVEDEDKHFFFWTFESRNDPAKDPVILWLNGGPGCSSLTGLFFELGPSSIGPDLKPIGNPYSWNSNATVIFLDQPVNVGFSYSGSSGVSNTVAAGKDVYNFLELFFDQFPEYVNKGQDFHIAGESYAGHYIPVFASEILSHKDRNFNLTSVLIGNGLTDPLTQYNYYEPMACGEGGEPSVLPSEECSAMEDSLERCLGLIESCYDSQSVWSCVPATIYCNNAQLAPYQRTGRNVYDIRKDCEGGNLCYPTLQDIDDYLNQDYVKEAVGAEVDHYESCNFDINRNFLFAGDNMKPYHTAVTDLLNQDLPILVYAGDKDFICNWLGNKAWTDVLPWKYDEEFASQKVRNWTASITDEVAGEVKSYKHFTYLRVFNGGHMVPFDVPENALSMVNEWIHGGFSL", "fa (fraction of aminolysis)": 0.23},
      {"molecule": "L178A: carboxypeptidase Y S1 mutant, substitution L178A (protein, UniProt P00729 112-532, looked up, variant L178A) Carboxypeptidase Y: KIKDPKILGIDPNVTQYTGYLDVEDEDKHFFFWTFESRNDPAKDPVILWLNGGPGCSSLTGLFFELGPSSIGPDLKPIGNPYSWNSNATVIFLDQPVNVGFSYSGSSGVSNTVAAGKDVYNFLELFFDQFPEYVNKGQDFHIAGESYAGHYIPVFASEILSHKDRNFNLTSVLIGNGATDPLTQYNYYEPMACGEGGEPSVLPSEECSAMEDSLERCLGLIESCYDSQSVWSCVPATIYCNNAQLAPYQRTGRNVYDIRKDCEGGNLCYPTLQDIDDYLNQDYVKEAVGAEVDHYESCNFDINRNFLFAGDWMKPYHTAVTDLLNQDLPILVYAGDKDFICNWLGNKAWTDVLPWKYDEEFASQKVRNWTASITDEVAGEVKSYKHFTYLRVFNGGHMVPFDVPENALSMVNEWIHGGFSL", "fa (fraction of aminolysis)": 0.45},
      {"molecule": "L178D + W312N: carboxypeptidase Y combination mutant L178D + W312N (protein, UniProt P00729 112-532, looked up, variant L178D W312N) Carboxypeptidase Y: KIKDPKILGIDPNVTQYTGYLDVEDEDKHFFFWTFESRNDPAKDPVILWLNGGPGCSSLTGLFFELGPSSIGPDLKPIGNPYSWNSNATVIFLDQPVNVGFSYSGSSGVSNTVAAGKDVYNFLELFFDQFPEYVNKGQDFHIAGESYAGHYIPVFASEILSHKDRNFNLTSVLIGNGDTDPLTQYNYYEPMACGEGGEPSVLPSEECSAMEDSLERCLGLIESCYDSQSVWSCVPATIYCNNAQLAPYQRTGRNVYDIRKDCEGGNLCYPTLQDIDDYLNQDYVKEAVGAEVDHYESCNFDINRNFLFAGDNMKPYHTAVTDLLNQDLPILVYAGDKDFICNWLGNKAWTDVLPWKYDEEFASQKVRNWTASITDEVAGEVKSYKHFTYLRVFNGGHMVPFDVPENALSMVNEWIHGGFSL", "fa (fraction of aminolysis)": 0.71}
    ]}
  ]
}
